B1: Fibroblast growth factor receptor 3 (Homo sapiens), P22607-1 (parent)
chain: MGAPACALALCVAVAIVAGASSESLGTEQRVVGRAAEVPGPEPGQQEQLVFGSGDAVELSCPPPGGGPMGPTVWVKDGTGLVPSERVLVGPQRLQVLNASHEDSGAYSCRQRLTQRVLCHFSVRVTDAPSSGDDEDGEDEAEDTGVDTGAPYWTRPERMDKKLLAVPAANTVRFRCPAAGNPTPSISWLKNGREFRGEHRIGGIKLRHQQWSLVMESVVPSDRGNYTCVVENKFGSIRQTYTLDVLERSPHRPILQAGLPANQTAVLGSDVEFHCKVYSDAQPHIQWLKHVEVNGSKVGPDGTPYVTVLKTAGANTTDKELEVLSLHNVTFEDAGEYTCLAGNSIGFSHHSAWLVVLPAEEELVEADEAGSVYAGILSYGVGFFLFILVVAAVTLCRLRSPPKKGLGSPTVHKISRFPLKRQVSLESNASMSSNTPLVRIARLSSGEGPTLANVSELELPADPKWELSRARLTLGKPLGEGCFGQVVMAEAIGIDKDRAAKPVTVAVKMLKDDATDKDLSDLVSEMEMMKMIGKHKNIINLLGACTQGGPLYVLVEYAAKGNLREFLRARRPPGLDYSFDTCKPPEEQLTFKDLVSCAYQVARGMEYLASQKCIHRDLAARNVLVTEDNVMKIADFGLARDVHNLDYYKKTTNGRLPVKWMAPEALFDRVYTHQSDVWSFGVLLWEIFTLGGSPYPGIPVEELFKLLKEGHRMDKPANCTHDLYMIMRECWHAAPSQRPTFKQLVEDLDRVLTVTSTDEYLDLSAPFEQYSPGGQDTPSSSSSGDDSVFAHDLLPPAPPSSGGSRT

Variants of: B1
Conditions: with fgf1_human FGF1, P05230
fgf1_human FGF1, P05230, sequence (P05230 whole entry): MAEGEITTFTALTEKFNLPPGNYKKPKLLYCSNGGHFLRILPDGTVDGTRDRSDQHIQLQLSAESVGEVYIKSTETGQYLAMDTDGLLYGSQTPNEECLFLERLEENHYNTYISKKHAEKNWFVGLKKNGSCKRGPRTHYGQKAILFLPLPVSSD

| effect of a mutation on the interaction | Variant |
| --- | --- |
| increasing interaction strength | P250R |

Variants of: B1
Conditions: with fgf2_human FGF2, P09038
fgf2_human FGF2, P09038, sequence (P09038 whole entry): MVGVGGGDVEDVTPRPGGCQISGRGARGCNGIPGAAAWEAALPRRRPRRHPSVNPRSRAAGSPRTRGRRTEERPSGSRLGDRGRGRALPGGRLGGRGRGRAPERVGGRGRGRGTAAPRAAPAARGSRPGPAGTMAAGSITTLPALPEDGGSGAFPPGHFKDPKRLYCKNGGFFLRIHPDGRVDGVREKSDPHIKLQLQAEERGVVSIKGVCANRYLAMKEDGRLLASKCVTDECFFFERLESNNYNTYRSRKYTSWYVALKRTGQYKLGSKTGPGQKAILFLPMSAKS

| effect of a mutation on the interaction | Variant |
| --- | --- |
| causing an interaction | P250R |

Variants of: B1
Conditions: with fgf9_human FGF9, P31371

| effect of a mutation on the interaction | Variant |
| --- | --- |
| causing an interaction | P250R |

Reference: IntAct's records for PubMed 14613973
